Measurements reported in patent publication US20150344570A1 (published 2015).

T1: FcγRIIb extracellular domain with C-terminal His tag (human, UniProt P31994 43-217)
T1 construct: extracellular domain; also called 2b; FcgRIIb; not shown: His tag at the C terminus
T1 sequence (looked up): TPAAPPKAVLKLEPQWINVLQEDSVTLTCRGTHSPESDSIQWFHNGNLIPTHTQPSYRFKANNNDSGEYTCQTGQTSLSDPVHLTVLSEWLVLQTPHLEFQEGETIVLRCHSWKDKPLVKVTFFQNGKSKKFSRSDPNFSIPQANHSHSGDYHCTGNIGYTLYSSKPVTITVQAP

B1: GpH7-A5/GpH7-B3 variant S267_14T/GpL16-k0 (antibody, human IgG1, kappa)
heavy 1: not shown
heavy 2: not shown
light: DIVMTQSPLSLPVTPGEPASISCQASESLVHSNRNTYLHWYLQKPGQSPQLLIYKVSNRFSGVPDRFSGSGSGTDFTLKISRVEAEDVGVYYCSQNTHVPPTFGQGTKVEIERTVAAPSVFIFPPSDEQLKSGTASVVCLLNNFYPREAKVQWKVDNALQSGNSQESVTEQDSKDSTYSLSSTLTLSKADYEKHKVYACEVTHQGLSSPVTKSFNRGEC
notes: IgG1, anti-glypican-3; also called He Ab
B2: GpH7-A5/GpH7-B3 variant P238_16H/GpL16-k0 (antibody, human IgG1, kappa)
heavy 1: not shown
heavy 2: not shown
light: B1 light
notes: as for B1
B3: GpH7-A5/GpH7-B3 variant V266_06M/GpL16-k0 (antibody, human IgG1, kappa)
heavy 1: not shown
heavy 2: not shown
light: B1 light
notes: as for B1
B4: GpH7-A5/GpH7-B3 variant S239_05P/GpL16-k0 (antibody, human IgG1, kappa)
heavy 1: not shown
heavy 2: not shown
light: B1 light
notes: as for B1
B5: GpH7-A5/GpH7-B3 variant S239_08L/GpL16-k0 (antibody, human IgG1, kappa)
heavy 1: not shown
heavy 2: not shown
light: B1 light
notes: as for B1
B6: GpH7-A5/GpH7-B3 variant P271_10E/GpL16-k0 (antibody, human IgG1, kappa)
heavy 1: not shown
heavy 2: not shown
light: B1 light
notes: as for B1
B7: GpH7-A5/GpH7-B3 variant S298_06M/GpL16-k0 (antibody, human IgG1, kappa)
heavy 1: not shown
heavy 2: not shown
light: B1 light
notes: as for B1
B8: GpH7-A5/GpH7-B3 variant P271_09D/GpL16-k0 (antibody, human IgG1, kappa)
heavy 1: not shown
heavy 2: not shown
light: B1 light
notes: as for B1
B9: GpH7-A5/GpH7-B3 variant S239_07I/GpL16-k0 (antibody, human IgG1, kappa)
heavy 1: not shown
heavy 2: not shown
light: B1 light
notes: as for B1
B10: GpH7-A5/GpH7-B3 variant S267_06M/GpL16-k0 (antibody, human IgG1, kappa)
heavy 1: not shown
heavy 2: not shown
light: B1 light
notes: as for B1
B11: GpH7-A5/GpH7-B3 variant S239_01G/GpL16-k0 (antibody, human IgG1, kappa)
heavy 1: not shown
heavy 2: not shown
light: B1 light
notes: as for B1
B12: GpH7-A5/GpH7-B3 variant S239_06M/GpL16-k0 (antibody, human IgG1, kappa)
heavy 1: not shown
heavy 2: not shown
light: B1 light
notes: as for B1
B13: GpH7-A5/GpH7-B3 variant S267_10E/GpL16-k0 (antibody, human IgG1, kappa)
heavy 1: not shown
heavy 2: not shown
light: B1 light
notes: as for B1
B14: GpH7-A5/GpH7-B3 variant S267_01G/GpL16-k0 (antibody, human IgG1, kappa)
heavy 1: not shown
heavy 2: not shown
light: B1 light
notes: as for B1
B15: GpH7-A5/GpH7-B3 variant S267_07I/GpL16-k0 (antibody, human IgG1, kappa)
heavy 1: not shown
heavy 2: not shown
light: B1 light
notes: as for B1
B16: GpH7-A5/GpH7-B3 variant P271_08L/GpL16-k0 (antibody, human IgG1, kappa)
heavy 1: not shown
heavy 2: not shown
light: B1 light
notes: as for B1
B17: GpH7-A5/GpH7-B3 variant S267_03V/GpL16-k0 (antibody, human IgG1, kappa)
heavy 1: not shown
heavy 2: not shown
light: B1 light
notes: as for B1
B18: GpH7-A5/GpH7-B3 variant S267_19Q/GpL16-k0 (antibody, human IgG1, kappa)
heavy 1: not shown
heavy 2: not shown
light: B1 light
notes: as for B1
B19: GpH7-A5/GpH7-B3 variant S239_03V/GpL16-k0 (antibody, human IgG1, kappa)
heavy 1: not shown
heavy 2: not shown
light: B1 light
notes: as for B1
B20: GpH7-A5/GpH7-B3 variant P238_19Q/GpL16-k0 (antibody, human IgG1, kappa)
heavy 1: not shown
heavy 2: not shown
light: B1 light
notes: as for B1
B21: GpH7-A5/GpH7-B3 variant S267_08L/GpL16-k0 (antibody, human IgG1, kappa)
heavy 1: not shown
heavy 2: not shown
light: B1 light
notes: as for B1

Each binder was assayed against T1, FcγRIIb extracellular domain with … (assay: SPR (Biacore), relative to GpH7-A5/GpH7-B3/GpL16-k0 = 100).

| He/Con_2b | Binder |
| --- | --- |
| 104 % (control = 100) | B1 |
| 115 % (control = 100) | B2 |
| 251 % (control = 100) | B3 |
| 102 % (control = 100) | B4 |
| 140 % (control = 100) | B5 |
| 109 % (control = 100) | B6 |
| 102 % (control = 100) | B7 |
| 120 % (control = 100) | B8 |
| 107 % (control = 100) | B9 |
| 210 % (control = 100) | B10 |
| 144 % (control = 100) | B11 |
| 101 % (control = 100) | B12 |
| 379 % (control = 100) | B13 |
| 105 % (control = 100) | B14 |
| 192 % (control = 100) | B15 |
| 103 % (control = 100) | B16 |
| 192 % (control = 100) | B17 |
| 218 % (control = 100) | B18 |
| 108 % (control = 100) | B19 |
| 110 % (control = 100) | B20 |
| 109 % (control = 100) | B21 |

Each binder was assayed against T2, FcγRIIIa extracellular domain with C-terminal His tag (human, UniProt P08637 17-208) in the same assay as above.
T2 construct: extracellular domain; also called 3a; FcgRIIIa; not shown: His tag at the C terminus
T2 sequence (P08637 17-208): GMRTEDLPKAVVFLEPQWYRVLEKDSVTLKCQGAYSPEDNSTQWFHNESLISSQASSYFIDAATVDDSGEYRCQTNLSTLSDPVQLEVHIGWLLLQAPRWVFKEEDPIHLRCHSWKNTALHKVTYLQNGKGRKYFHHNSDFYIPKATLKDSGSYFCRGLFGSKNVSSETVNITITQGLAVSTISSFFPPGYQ

| He/Con_3a | Binder |
| --- | --- |
| 45.6 % (control = 100) | B1 |
| 30.7 % (control = 100) | B2 |
| 85.8 % (control = 100) | B3 |
| 14.9 % (control = 100) | B4 |
| 95.3 % (control = 100) | B5 |
| 93.6 % (control = 100) | B6 |
| 92.6 % (control = 100) | B7 |
| 93.1 % (control = 100) | B8 |
| 79.3 % (control = 100) | B9 |
| 66 % (control = 100) | B10 |
| 76.2 % (control = 100) | B11 |
| 78.2 % (control = 100) | B12 |
| 91.9 % (control = 100) | B13 |
| 53.8 % (control = 100) | B14 |
| 25.2 % (control = 100) | B15 |
| 71 % (control = 100) | B16 |
| 30.8 % (control = 100) | B17 |
| 65 % (control = 100) | B18 |
| 76.6 % (control = 100) | B19 |
| 55.8 % (control = 100) | B20 |
| 19.5 % (control = 100) | B21 |
